# Source: PMC6333238, “The biosynthetic implications of late-stage condensation domain selectivity during glycopeptide antibiotic biosynthesis” (Chemical Science, 2018)
# Test system: T1, N[C@H](C(=O)O)c1cc(O)cc(O)c1
# T1 construct: full-length final NRPS module C-A-PCP-X-TE, MBP fusion (pET-MBP-1c), Ni-NTA and SEC, E. coli, co-expressed with Tcp17; holo form (PCP loaded with phosphopantetheine by Sfp R4-4); with MbtH-like protein Tcp17
# Experiment: coupled PPi-release A-domain assay (PPi-PFK/aldolase/TPI/GDH, NADH)
# Assay type: biochemical, Actinoplanes teichomyceticus
# Conditions: holo form, 0.5 mM ATP, 1 mM MgCl2, pH 7.4, 0.1 mM EDTA, enzyme 1 μM
# Sequence of Tcp12 (Actinoplanes teichomyceticus) (chain, as listed by the source): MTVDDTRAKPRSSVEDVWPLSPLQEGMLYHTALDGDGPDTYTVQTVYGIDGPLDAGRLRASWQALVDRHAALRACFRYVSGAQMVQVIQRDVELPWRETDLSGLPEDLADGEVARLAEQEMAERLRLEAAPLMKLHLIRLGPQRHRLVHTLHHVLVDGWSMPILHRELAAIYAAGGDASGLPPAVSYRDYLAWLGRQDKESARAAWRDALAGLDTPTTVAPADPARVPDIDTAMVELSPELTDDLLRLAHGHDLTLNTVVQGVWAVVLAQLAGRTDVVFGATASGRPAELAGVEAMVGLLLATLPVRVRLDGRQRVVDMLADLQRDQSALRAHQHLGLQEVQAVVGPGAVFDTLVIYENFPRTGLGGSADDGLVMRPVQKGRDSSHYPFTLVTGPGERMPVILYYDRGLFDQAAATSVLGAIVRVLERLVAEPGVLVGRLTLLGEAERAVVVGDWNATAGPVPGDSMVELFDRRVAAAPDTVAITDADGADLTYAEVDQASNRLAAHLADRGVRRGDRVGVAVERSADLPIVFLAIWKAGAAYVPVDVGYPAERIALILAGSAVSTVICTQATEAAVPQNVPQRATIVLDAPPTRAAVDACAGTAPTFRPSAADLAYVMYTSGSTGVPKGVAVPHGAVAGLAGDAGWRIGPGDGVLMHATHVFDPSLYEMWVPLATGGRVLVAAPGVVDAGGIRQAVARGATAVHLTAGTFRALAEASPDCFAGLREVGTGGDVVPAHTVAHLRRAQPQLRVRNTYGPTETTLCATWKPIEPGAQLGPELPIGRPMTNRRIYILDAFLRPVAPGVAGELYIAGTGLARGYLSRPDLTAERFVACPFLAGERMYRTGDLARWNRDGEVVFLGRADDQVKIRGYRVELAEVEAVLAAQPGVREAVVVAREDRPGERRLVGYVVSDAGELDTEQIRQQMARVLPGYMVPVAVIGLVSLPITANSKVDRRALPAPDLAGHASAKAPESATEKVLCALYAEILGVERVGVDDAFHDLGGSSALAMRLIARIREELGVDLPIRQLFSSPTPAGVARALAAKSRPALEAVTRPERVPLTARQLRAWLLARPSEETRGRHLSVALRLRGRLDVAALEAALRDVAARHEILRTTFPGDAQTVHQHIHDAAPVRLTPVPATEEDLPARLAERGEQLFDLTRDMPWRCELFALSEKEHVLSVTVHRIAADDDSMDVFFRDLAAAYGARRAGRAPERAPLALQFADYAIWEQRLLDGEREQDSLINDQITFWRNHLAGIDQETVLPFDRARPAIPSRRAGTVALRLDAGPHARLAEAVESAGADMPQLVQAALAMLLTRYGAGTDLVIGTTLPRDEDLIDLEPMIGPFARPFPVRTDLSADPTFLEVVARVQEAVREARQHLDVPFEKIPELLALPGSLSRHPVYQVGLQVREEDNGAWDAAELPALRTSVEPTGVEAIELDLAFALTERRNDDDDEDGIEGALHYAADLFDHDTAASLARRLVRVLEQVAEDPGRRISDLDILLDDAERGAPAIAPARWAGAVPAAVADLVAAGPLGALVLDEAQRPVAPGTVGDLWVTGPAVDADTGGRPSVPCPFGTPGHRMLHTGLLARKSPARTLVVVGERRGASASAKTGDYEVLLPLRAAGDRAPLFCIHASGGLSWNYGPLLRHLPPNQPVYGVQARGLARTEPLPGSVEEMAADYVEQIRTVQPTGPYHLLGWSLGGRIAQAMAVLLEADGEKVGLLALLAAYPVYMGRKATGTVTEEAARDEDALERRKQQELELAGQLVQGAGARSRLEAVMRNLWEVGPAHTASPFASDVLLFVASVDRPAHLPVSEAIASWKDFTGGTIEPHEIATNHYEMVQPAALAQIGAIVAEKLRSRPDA
substance,measurement,value
Tcp12 (Actinoplanes teichomyceticus),Km,4 ± 0.1 µM
same,kcat,0.01867 ± 0.000167 s⁻¹
